The record followed here is patent US20020142964A1 (published 2002).

B1: Single-chain G-CSF dimer (K16R K34R K40R)copy 1,2 (ligand)
chain: TPLGPASSLPQSFLLRCLEQVRKIQGDGAALQERLCATYRLCHPEELVLLGHSLGIPWAPLSSCPSQALQLAGCLSQLHSGLFLYQGLLQALEGISPELGPTLDTLQLDVADFATTIWQQMEELGMAPALQPTQGAMPAFASAFQRRAGGVLVASHLQSFLEVSYRVLRHLAQPTPLGPASSLPQSFLLRCLEQVRKIQGDGAALQERLCATYRLCHPEELVLLGHSLGIPWAPLSSCPSQALQLAGCLSQLHSGLFLYQGLLQALEGISPELGPTLDTLQLDVADFATTIWQQMEELGMAPALQPTQGAMPAFASAFQRRAGGVLVASHLQSFLEVSYRVLRHLAQP
B2: Single-chain G-CSF dimer (K16R K34R)copy 1,2 PEG5000 (ligand)
chain: B1 chain with R40K, R214K
modifications: SPA-PEG 5000 covalently linked to the available PEGylation sites; number and positions not stated
B3: Single-chain G-CSF dimer (K16R K34R K40R)copy 1,2 PEG5000 (ligand)
chain: B1 chain
modifications: SPA-PEG 5000 covalently linked to the available PEGylation sites; number and positions not stated
B4: Single-chain G-CSF dimer (K16R K34R K40R)copy 1,2 PEG12000 (ligand)
chain: B1 chain
modifications: SPA-PEG 12000 covalently linked to the available PEGylation sites; number and positions not stated
B5: Single-chain G-CSF dimer (K16R K34R)copy 1,2 (ligand)
chain: B1 chain with R40K, R214K
B6: Single-chain G-CSF dimer PEG12000 (ligand)
chain: B1 chain with R16K, R34K, R40K, R190K, R208K, R214K
modifications: SPA-PEG 12000 covalently linked to the available PEGylation sites; number and positions not stated
B7: Single-chain G-CSF dimer (ligand)
chain: B1 chain with R16K, R34K, R40K, R190K, R208K, R214K
B8: Single-chain G-CSF dimer PEG5000 (ligand)
chain: B1 chain with R16K, R34K, R40K, R190K, R208K, R214K
modifications: SPA-PEG 5000 covalently linked to the available PEGylation sites; number and positions not stated
B9: Single-chain G-CSF dimer (K16R)copy 1,2 (ligand)
chain: B1 chain with R34K, R40K, R208K, R214K
B10: Single-chain G-CSF dimer PEG20000 (ligand)
chain: B1 chain with R16K, R34K, R40K, R190K, R208K, R214K
modifications: SPA-PEG 20000 covalently linked to the available PEGylation sites; number and positions not stated
B11: Single-chain G-CSF dimer (K16R K34R)copy 1,2 PEG12000 (ligand)
chain: B1 chain with R40K, R214K
modifications: SPA-PEG 12000 covalently linked to the available PEGylation sites; number and positions not stated
B12: non-conjugated hG-CSF (Neupogen®) (ligand)
chain: TPLGPASSLPQSFLLKCLEQVRKIQGDGAALQEKLCATYKLCHPEELVLLGHSLGIPWAPLSSCPSQALQLAGCLSQLHSGLFLYQGLLQALEGISPELGPTLDTLQLDVADFATTIWQQMEELGMAPALQPTQGAMPAFASAFQRRAGGVLVASHLQSFLEVSYRVLRHLAQP

Substitutions are numbered along the chain they refer to. In names and notes the source's numbering stands.

In the first assay the target is T1, human G-CSF receptor (human, UniProt Q99062 25-836).
T1 sequence (looked up): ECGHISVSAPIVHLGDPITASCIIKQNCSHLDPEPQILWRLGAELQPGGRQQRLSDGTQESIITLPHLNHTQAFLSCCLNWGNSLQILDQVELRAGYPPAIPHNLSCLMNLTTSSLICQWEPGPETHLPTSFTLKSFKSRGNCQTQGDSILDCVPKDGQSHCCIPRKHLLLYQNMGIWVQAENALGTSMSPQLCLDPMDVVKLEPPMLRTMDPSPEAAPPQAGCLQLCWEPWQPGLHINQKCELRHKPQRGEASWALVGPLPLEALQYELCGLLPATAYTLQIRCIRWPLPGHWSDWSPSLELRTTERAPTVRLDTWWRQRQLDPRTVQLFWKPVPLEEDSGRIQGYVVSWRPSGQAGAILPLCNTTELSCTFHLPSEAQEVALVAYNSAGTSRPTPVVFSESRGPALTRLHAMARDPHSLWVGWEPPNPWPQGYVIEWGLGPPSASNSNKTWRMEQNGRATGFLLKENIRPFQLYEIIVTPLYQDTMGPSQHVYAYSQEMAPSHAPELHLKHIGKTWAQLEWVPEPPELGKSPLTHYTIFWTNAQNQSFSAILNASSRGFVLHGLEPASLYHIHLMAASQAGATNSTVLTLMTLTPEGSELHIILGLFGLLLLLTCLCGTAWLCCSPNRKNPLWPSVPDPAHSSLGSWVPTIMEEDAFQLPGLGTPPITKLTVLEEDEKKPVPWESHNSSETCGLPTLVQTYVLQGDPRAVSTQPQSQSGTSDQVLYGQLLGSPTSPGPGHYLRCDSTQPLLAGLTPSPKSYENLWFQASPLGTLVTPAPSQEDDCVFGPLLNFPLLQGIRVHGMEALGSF
Description: cell-based or functional assay.
For the molecule B1, the “Specific activity (% of Neupogen®), from EC50 in luciferase reporter assay” value (“Specific activity (% of Neupogen®)” for short) is 300 % of Neupogen®. Same read-out and setting: as for B2, the figure is 19 % of Neupogen®; as for B3, 10 % of Neupogen®; as for B4, 10 % of Neupogen®. The same measure, in the same setting: as for B5, the figure is 329 % of Neupogen®; as for B6, 62 % of Neupogen®; as for B7, 214 % of Neupogen®.

For B8, the “Specific activity (% of Neupogen®)” value was 120 % of Neupogen®. B9: the “Specific activity (% of Neupogen®)” value was 135 % of Neupogen®. In the case of B10, the “Specific activity (% of Neupogen®)” value was 25 % of Neupogen®. On the same count and under the same terms, as for B11, the figure is 8 % of Neupogen®.

The target in the next assay is T1, human G-CSF receptor. Description: cell-based or functional assay. This is another data set of the same source.
With B12, the “EC50, luciferase reporter assay in BaF3/hGCSF-R/pfos-lux cells (Primary assay 2)” value was 0.03 nM.
